Kd data for one substance are collected here from paper PMC2946813.

This assay deals with human factor Xa (human) (UniProt P00742). Nature of the assay: prothrombinase activity titration.
Chain of UniProt P00742 (P00742 41-179, chain 1 of 2): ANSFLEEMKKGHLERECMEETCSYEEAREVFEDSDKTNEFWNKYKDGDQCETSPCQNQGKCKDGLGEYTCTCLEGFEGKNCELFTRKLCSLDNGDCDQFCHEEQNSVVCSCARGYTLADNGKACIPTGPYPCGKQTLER
Chain of UniProt P00742 (P00742 235-488, chain 2 of 2): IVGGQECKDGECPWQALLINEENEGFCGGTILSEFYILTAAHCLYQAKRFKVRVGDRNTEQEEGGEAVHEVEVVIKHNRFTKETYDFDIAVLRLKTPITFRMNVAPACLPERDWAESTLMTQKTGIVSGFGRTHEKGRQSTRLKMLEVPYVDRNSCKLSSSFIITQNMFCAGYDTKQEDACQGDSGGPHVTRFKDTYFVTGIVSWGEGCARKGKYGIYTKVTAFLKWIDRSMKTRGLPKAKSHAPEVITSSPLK

Usually Kd stands for the concentration at which binding is half-saturated. “plasma-derived human factor V activated with α-thrombin (from UniProt P12259 29-737) (natural protein)” gave a Kd of 0.67 nM.
